The series deals with the molecule itself. The experiment in a line: size exclusion chromatography on a column calibrated with protein standards; self-association.

B1: Dsg407 from Cyanophage Syn10 GenBank: AGH56623.1 (enzyme)
chain: MKIESVAIVGGGSSGWMTAAALSKLCPQLEIALIEDPNIKTVGVGESTLGHFNKFLHLLDLKDEDWMPACNATYKNSIRFTNFREGKGEVFEYPFGPSLDVSFFSQTDGINTWGKLANKYPEDFPPETFARFVNSNTYLAEHNRLTRNKDNKIPNFNFDWDTAYHIDAELFGQYLKEKIALPNGVKHIQGKVTGYQKESPNNHNFKYIILDQETAIFADLYIDCTGFKSLLLGEFMGEAFSPFSKKLANDKAMATRIPYENREEEMHNVTDCHAMKNGWVWNIPLWNRIGTGYCYSSRFVSKDDAEAEFREHLGERGKDAKIFHIDIGHGKRTRAWVNNCVGIGLSYGFIEPLESTGLLTTHENIENLVYLINQRDGYVTQAERDGFNYTCDHQIDSFSDFVAMHYAYSMRTDTPYWKWCTQMCNYMPESMGPHRQKQSTWQDLSTDTIGLNTWHINHNGISFIIAGHGLRPQSYDKLSEVLLKRNNESDYYYEDIRKDWLKHYESMVEYVKTLPTHYEFLRDEIYGSAE
notes: also called hypothetical protein CPUG_00131; viral halogenase Dsg407
Take B1: the binding result is on record as “binds”.
